Test results from patent US20250064951A1, “DENDRITIC POLYELECTROLYTE ZWITTERIONS, JANUS-TYPE CONJUGATE COMPRISING SAME AND USES THEREOF” (ArtProBio Co., Ltd., priority 2023, published 2025).
Ends that are not written are not given here.

Legend:
HCT116 cells [1] = experiment: Cytotoxicity, WST-8 assay in HCT116 cells; assay type: cell-based, human; conditions: 0, 1.25, 2.5, 5, 10 μM, 4 hours
Protocol: The cytotoxicity of the G2 Janus-type dendritic polyelectrolyte zwitterions according to the present disclosure (JDPZ, (+M)2(−M)2 conjugate_1) was analyzed using HCT116 cells (human colon cancer cells). Specifically, HCT116 cells were subcultured in DMEM supplemented with 10% FBS (fetal bovine serum), dispensed into each well at 1×10^4 cells/well, and cultured at 37° C. for 24 hours. The cells were treated with the samples (Example 5-1 and Comparative Examples 1-1 to 1-3) at various concentrations (0, 1.25, 2.5, 5, 10 μM), respectively, and incubated at 37° C. for 4 hours. WST-8 solution was added to the cultured cells, and absorbance was measured at 450 nm with a microplate reader (Perkin-Elmer, USA) 4 hours later.

HCT116 cells [2] = experiment: Intracellular delivery efficiency in HCT116 cells by flow cytometry; assay type: cell-based, human; conditions: summary statement, b342
Protocol: To confirm the intracellular delivery efficiency, HCT116 cells were subcultured in DMEM supplemented with 10% FBS (fetal bovine serum), dispensed into each well at 1-3×10^4 cells/well, and cultured at 37° C. for 24 hours. The cells were treated with the (+6)2(−6)2 conjugate_FAM prepared in Example 6-2 at a concentration of 10 μM and incubated at 37° C. for 4 hours. Afterwards, the cells were washed with Dulbecco's phosphate-buffered saline (DPBS), trypsinized, resuspended in DPBS supplemented with 10% cell dissociation buffer (GIBCO) and 1% FBS, and then analyzed using a flow cytometer (BD LSR II SORT flow cytometer, BD Bioscience, USA) for analysis of intracellular fluorescence.

[3] = DLS size, size distribution and zeta potential; assay type: physicochemical; conditions: for Diameter (nm) in DW / Diameter (nm) in PBS: DLS
BSA = BSA (Bos taurus, UniProt P02769); experiment: EMSA of non-fouling property for proteins (BSA); assay type: binding
Source text: The mixing ratio was R/B ratio, wherein the R/B ratio was arginine/BSA ratio. […] For visualization, the bands were stained with Coomassie brilliant blue R-250.
The mixing ratio was peptide/BSA ratio, wherein the peptide/BSA ratio was peptide/BSA (w/w). […] For visualization, the bands were stained with Coomassie brilliant blue R-250.

yeast rRNA = experiment: EMSA of non-fouling property for rRNA; assay type: binding; conditions: 200 ng yeast rRNA; various peptide/RNA (w/w) ratios; room temperature 1 hour
Protocol: It was confirmed through EMSA (electrophoretic mobility shift assay) that the dendrimer structure of the present disclosure has non-fouling property for various genetic materials present in the body when administered in vivo. 200 ng of yeast rRNA (ribosomal RNA) was prepared as a model genetic material and mixed with the Janus-type dendritic polyelectrolyte zwitterion of Example 5-4 (JDPZ ((+6)2(−6)2 conjugate_1)) at various concentration ratios. The mixing ratio was peptide/RNA ratio, wherein the peptide/RNA ratio was peptide/RNA (w/w). After reacting the mixture at room temperature for 1 hour, electrophoresis was performed on a 2% agarose gel at 90 V for 100 minutes. For visualization, the bands were stained with SYBR Gold nucleic acid gel stain (Invitrogen, USA).
The Janus-type dendrimer structure of Comparative Example 1-2 ((+3)2(Ø3)2 conjugate) was used as a control group instead of the JDPZ of Example 5-4 ((+6)2(−6)2 conjugate_1).

HeLa cells = experiment: Cytotoxicity, WST-8 assay in HeLa cells; assay type: cell-based; conditions: 0, 2, 4, 8, 16, 32, 64 and 128 μM, 4 hours
Protocol: Since DPZ contains both polyelectrolytes and zwitterions in a single molecule, it is expected to have non-fouling property and low toxicity, while also having advantageous intracellular delivery efficiency due to its interaction with the cell membrane. Cytotoxicity was analyzed first. HeLa cells were subcultured in DMEM supplemented with 10% FBS (fetal bovine serum), dispensed into each well at 1×10^4 cells/well, and cultured at 37° C. for 24 hours. The cells were treated with the samples (Examples 1-1 to 1-6 or Comparative Examples 3-1 and 3-2) at various concentrations and then cultured at 37° C. for 4 hours. WST-8 solution was added to the cultured cells, and absorbance was measured at 450 nm with a microplate reader (Perkin-Elmer, USA) 4 hours later.
Cytotoxicity was analyzed using HeLa cells. Specifically, HeLa cells were subcultured in DMEM supplemented with 10% FBS (fetal bovine serum), dispensed into each well at 1×10^4 cells/well, and cultured at 37° C. for 24 hours. The cells were treated with the samples (Examples 3-1 to 3-6) at various concentrations and then cultured at 37° C. for 4 hours. WST-8 solution was added to the cultured cells, and absorbance was measured at 450 nm with a microplate reader (Perkin-Elmer, USA) 4 hours later.

[4] = 1 μg BSA, various peptide/BSA (w/w) ratios, room temperature 1 hour

Chain of BSA (P02769 25-607): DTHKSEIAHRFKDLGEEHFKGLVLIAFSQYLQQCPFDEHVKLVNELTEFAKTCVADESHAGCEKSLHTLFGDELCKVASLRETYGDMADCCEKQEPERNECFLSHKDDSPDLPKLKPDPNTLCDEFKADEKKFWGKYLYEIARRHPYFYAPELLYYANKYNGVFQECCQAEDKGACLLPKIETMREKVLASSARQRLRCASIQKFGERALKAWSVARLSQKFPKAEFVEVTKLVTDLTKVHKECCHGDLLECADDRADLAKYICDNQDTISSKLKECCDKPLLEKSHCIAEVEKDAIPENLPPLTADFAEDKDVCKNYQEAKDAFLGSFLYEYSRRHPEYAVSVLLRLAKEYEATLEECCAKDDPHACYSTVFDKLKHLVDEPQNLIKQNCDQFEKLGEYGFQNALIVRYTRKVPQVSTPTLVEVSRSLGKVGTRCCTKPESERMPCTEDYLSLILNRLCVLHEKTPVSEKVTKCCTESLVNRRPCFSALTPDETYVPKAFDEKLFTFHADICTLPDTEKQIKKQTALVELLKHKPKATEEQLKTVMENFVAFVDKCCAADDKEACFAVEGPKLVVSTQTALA

| Molecule | cytotoxicity (HCT116 cells [1]) | Net charge [3] | Zeta potential (mV) [3] | Diameter (nm) in DW [3] [nm] | Diameter (nm) in PBS [3] | also measured |
| --- | --- | --- | --- | --- | --- | --- |
| CC(=O)NCCCCCCCCCCCC(=O)NCCCCC(NC(=O)CCCCCCCCCCCNC(C)=O)C(=O)NCCCCC(NC(=O)C(CCCCNC(=O)CCCCCCCCCCCNC(C)=O)NC(=O)CCCCCCCCCCCNC(C)=O)C(=O)NCCCCC(NC(=O)C(CCCCNC(=O)C(CCCCNC(=O)C(CCCNC(=N)N)NC(=O)C(CCCNC(=N)N)NC(=O)C(CCCNC(=N)N)NC(C)=O)NC(=O)C(CCCNC(=N)N)NC(=O)C(CCCNC(=N)N)NC(=O)C(CCCNC(=N)N)NC(C)=O)NC(=O)C(CCCCNC(=O)C(CCCNC(=N)N)NC(=O)C(CCCNC(=N)N)NC(=O)C(CCCNC(=N)N)NC(C)=O)CC(=O)C(CCCNC(=N)N)NC(=O)C(CCCNC(=N)N)NC(=O)C(CCCNC(=N)N)NC(C)=O)C(N)=O (stereo not drawn) [Comparative Example 1-1] | very high toxicity |  |  |  |  | cellular delivery efficiency (HCT116 cells [2]): high cellular delivery efficiency |
| CC(=O)NCCCCCCCCCCCC(=O)NCCCCC(NC(=O)CCCCCCCCCCCNC(C)=O)C(=O)NCCCCC(NC(=O)C(CCCCNC(=O)CCCCCCCCCCCNC(C)=O)NC(=O)CCCCCCCCCCCNC(C)=O)C(=O)NCCCCC(NC(=O)C(CCCCNC(=O)C(CCCCNC(=O)C(CO)NC(=O)C(CO)NC(=O)C(CO)NC(C)=O)NC(=O)C(CCCNC(=N)N)NC(=O)C(CCCNC(=N)N)NC(=O)C(CCCNC(=N)N)NC(C)=O)NC(=O)C(CCCCNC(=O)C(CO)NC(=O)C(CO)NC(=O)C(CO)NC(C)=O)NC(=O)C(CCCNC(=N)N)NC(=O)C(NCCNC(=N)N)NC(=O)C(CCCNC(=N)N)NC(C)=O)C(N)=O (stereo not drawn) [Comparative Example 1-2, reference compound] | very high toxicity | +6 | +52.8 mV | 742.3 | 5,688.2 nm | binding to BSA (non-fouling property), EMSA (BSA; [4]): binds easily to BSA; cellular delivery efficiency (HCT116 cells [2]): high cellular delivery efficiency; interaction with rRNA (non-fouling property), EMSA (yeast rRNA): forms a non-specific interaction with rRNA even under the low-concentration rRNA condition |
| CC(=O)NCCCCCCCCCCCC(=O)NCCCCC(NC(=O)CCCCCCCCCCCNC(C)=O)C(=O)NCCCCC(NC(=O)C(CCCCNC(=O)CCCCCCCCCCCNC(C)=O)NC(=O)CCCCCCCCCCCNC(C)=O)C(=O)NCCCCC(NC(=O)C(CCCCNC(=O)C(CCCCNC(=O)[C@H](CCC(=O)O)NC(=O)[C@H](CCC(=O)O)NC(=O)C(CCC(=O)O)NC(C)=O)NC(=O)[C@H](CCCCC(=N)N)NC(=O)[C@H](CCCNC(=N)N)NC(=O)[C@H](CCCNC(=N)N)NC(C)=O)NC(=O)C(CCCCNC(=O)[C@H](CCCNC(=N)N)NC(=O)[C@H](CCCNC(=N)N)NC(=O)[C@H](CCCNC(=N)N)NC(C)=O)NC(=O)[C@H](CCC(=O)O)NC(=O)[C@H](CCC(=O)O)NC(=O)[C@H](CCC(=O)O)NC(C)=O)C(N)=O (stereo partly drawn) [Example 5-1] | does not exhibit cytotoxicity | 0 | +42.3 mV | 109.8 | 75.4 nm |  |
| CC(=O)NCCCCCCCCCCCC(=O)NCCCCC(NC(=O)CCCCCCCCCCCNC(C)=O)C(=O)NCCCCC(NC(=O)C(CCCCNC(=O)CCCCCCCCCCCNC(C)=O)NC(=O)CCCCCCCCCCCNC(C)=O)C(=O)NCCCCC(NC(=O)C(CCCCNC(=O)C(CCCCNC(=O)[C@H](CCC(=O)O)NC(=O)[C@H](CCC(=O)O)NC(=O)[C@H](CCC(=O)O)NC(=O)[C@H](CCC(=O)O)NC(=O)[C@H](CCC(=O)O)NC(=O)[C@H](CCC(=O)O)NC(C)=O)NC(=O)[C@H](CCCCC(=N)N)NC(=O)[C@H](CCCNC(=N)N)NC(=O)[C@H](CCCNC(=N)N)NC(=O)[C@H](CCCNC(=N)N)NC(=O)[C@H](CCCNC(=N)N)NC(=O)[C@H](CCCNC(=N)N)NC(C)=O)NC(=O)C(CCCCNC(=O)[C@H](CCCNC(=N)N)NC(=O)[C@H](CCCNC(=N)N)NC(=O)[C@H](CCCNC(=N)N)NC(=O)[C@H](CCCNC(=N)N)NC(=O)[C@H](CCCNC(=N)N)NC(=O)[C@H](CCCNC(=N)N)NC(C)=O)NC(=O)[C@H](CCC(=O)O)NC(=O)[C@H](CCC(=O)O)NC(=O)[C@H](CCC(=O)O)NC(=O)[C@H](CCC(=O)O)NC(=O)[C@H](CCC(=O)O)NC(=O)[C@H](CCC(=O)O)NC(C)=O)C(N)=O (stereo partly drawn) [Example 5-4] |  | 0 | +35.2 mV | 649.0 | 128.9 nm | binding to BSA (non-fouling property), EMSA (BSA; [4]): hardly binds to BSA; interaction with rRNA (non-fouling property), EMSA (yeast rRNA): forms interaction only under high-concentration conditions in which rRNA is present in an amount exceeding 10 times |
| Ac-EEEEEEEEEEEERRRRRRRRRRRR-NH2 [Comparative Example 3-2] |  |  |  |  |  | cytotoxicity (HeLa cells): do not cause toxicity in the cells |
| Comparative Example 3-1: peptide in which cationic and anionic amino acids are linked alternately (Ac-ERERERERERERERERERERERERERER) |  |  |  |  |  | cytotoxicity (HeLa cells): do not cause toxicity in the cells |
| linear peptide R12: linear peptide with 12 arginines, same number of cationic residues as Example 1-6 (RRRRRRRRRRRR; not fully specified (some residues)) |  |  |  |  |  | binding to BSA (non-fouling property), EMSA (BSA; 0.5 μg BSA, various R/B (arginine/BSA) ratios, room temperature 12 hours): interacts with BSA and induces EMS |
